Data from US20260151508A1 (BEAM THERAPEUTICS, published 2026).

Legend:
[1] = target: T1, PiM+Bystander (D365G) human alpha-1 antitrypsin (AAT) protein, bacterially expressed (human, UniProt P01009 25-418); test: in vitro neutrophil elastase binding assay, bacterially expressed AAT
T1 construct: Wild-type AAT altered to include D365G; also called D365G AAT protein; AAT protein with a D365G alteration

[2] = target: T2, PiM (wild type) human alpha-1 antitrypsin (AAT) protein, bacterially expressed (human, UniProt P01009 25-418); test: as above
T2 construct: The signal peptide is left out here; also called PiM (WT) AAT; wild-type AAT
T2 sequence (P01009 25-418): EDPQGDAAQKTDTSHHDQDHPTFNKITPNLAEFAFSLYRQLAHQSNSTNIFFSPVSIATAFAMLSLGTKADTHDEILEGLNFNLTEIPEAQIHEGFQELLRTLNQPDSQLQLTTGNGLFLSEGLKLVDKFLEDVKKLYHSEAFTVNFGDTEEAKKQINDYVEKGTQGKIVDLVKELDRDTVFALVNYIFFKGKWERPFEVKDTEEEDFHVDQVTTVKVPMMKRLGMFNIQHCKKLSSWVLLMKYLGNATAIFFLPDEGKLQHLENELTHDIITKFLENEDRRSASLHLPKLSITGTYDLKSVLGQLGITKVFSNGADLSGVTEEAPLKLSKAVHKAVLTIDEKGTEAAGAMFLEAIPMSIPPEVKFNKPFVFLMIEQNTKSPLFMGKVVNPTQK

T1 sequence (P01009 25-418 D365G): as the sequence (P01009 25-418) above, with D341G counted along it

B1: human neutrophil elastase (enzyme, UniProt P08246 30-247, looked up)
chain: IVGGRRARPHAWPFMVSLQLRGGHFCGATLIAPNFVMSAAHCVANVNVRAVRVVLGAHNLSRREPTRQVFAVQRIFENGYDPVNLLNDIVILQLNGSATINANVQVAQLPAQGRRLGNGVQCLAMGWGLLGRNRGIASVLQELNVTVVTSLCRRSNVCTLVRGRQAGVCFGDSGSPLVCNGLIHGIASFVRGGCASGLYPDAFAPVAQFVNWIDSIIQ
notes: also called HNE
binding result [1]: binds
binding result [2]: binds
